Biological target: CsrA (Yersinia pseudotuberculosis, UniProt B1JJ99 1-61)
Experiment: analytical SEC; 50 uM CsrA, 25 uM RNA
Conditions: protein: recombinant; tags: His6 (pET28a); chain copies: 2; hairpin (predicted)

Sequence of CsrA (B1JJ99 whole entry): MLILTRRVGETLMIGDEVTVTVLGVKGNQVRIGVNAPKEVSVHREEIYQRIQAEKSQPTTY

CUUUCACUUUCUUAACAUGAUACAGGAGGGCUUAUG (structured_RNA) [urease SD RNA (Pure-CsrA RNA)]: binds.

Source: paper PMC5835112
